From patent US6376653 (GlaxoSmithKline, dated 2002)

Biological target: T1, recombinant Tie2 extracellular domain-Fc fusion (UniProt Q02763 23-748, limits assumed)
T1 construct: extracellular domain; also called Tie2-Fc; Tie2 receptor-Fc fusion; not shown: Fc part
Experiment: BIAcore SPR, purified mAb captured on rabbit anti-mouse IgG Fc, Tie2-Fc injected
Experimental: The affinity of the purified mAbs was measured in the BIAcore. Using a flow rate of 10 μl/min, the mAb (diluted in HBS buffer) was injected over a rabbit anti-mouse IgG Fc surface, followed by buffer flow and the RU recorded. Tie2-Fc diluted in HBS buffer was then injected for 120 s followed by buffer flow for 240 s and regeneration of the sensor chip surface with an injection of 15 μl 0.1 M phosphoric acid. BIAcore software was used for association and dissociation-phase analysis. The murine monoclonal antibodies bound to soluble monomeric Tie2 receptor. The on-rates ($kass$) and off-rates ($kdiss$) were calculated.

T1 sequence (Q02763 23-748 limits assumed): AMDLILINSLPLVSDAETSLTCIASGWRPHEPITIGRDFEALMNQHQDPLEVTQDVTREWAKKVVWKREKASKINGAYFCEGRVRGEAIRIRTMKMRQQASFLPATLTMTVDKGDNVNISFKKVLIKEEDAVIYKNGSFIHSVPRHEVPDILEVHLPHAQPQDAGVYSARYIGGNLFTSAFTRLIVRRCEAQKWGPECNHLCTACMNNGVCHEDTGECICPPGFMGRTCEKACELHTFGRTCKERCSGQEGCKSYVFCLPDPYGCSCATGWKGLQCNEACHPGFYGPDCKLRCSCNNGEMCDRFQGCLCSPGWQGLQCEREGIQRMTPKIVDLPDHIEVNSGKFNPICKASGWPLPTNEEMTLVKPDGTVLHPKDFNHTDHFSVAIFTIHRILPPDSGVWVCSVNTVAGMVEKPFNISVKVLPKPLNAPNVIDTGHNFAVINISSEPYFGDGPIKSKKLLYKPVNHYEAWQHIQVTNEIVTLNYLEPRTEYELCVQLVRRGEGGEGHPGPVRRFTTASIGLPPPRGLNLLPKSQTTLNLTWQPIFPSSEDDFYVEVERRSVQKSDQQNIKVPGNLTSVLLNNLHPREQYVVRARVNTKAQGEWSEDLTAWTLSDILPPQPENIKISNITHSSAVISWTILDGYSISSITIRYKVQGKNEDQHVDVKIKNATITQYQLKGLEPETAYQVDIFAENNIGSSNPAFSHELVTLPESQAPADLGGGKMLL

B1: monoclonal antibody 12H8 (antibody, V domains shown)
VH: EVQLVESGGGLVKPGGSLKLSCAASGFTFSDYGMHWVRQAPEKGLEWVAYINSGSSTITYADTVKGRFTISRDNAKNTLFLQMTSLRSEDTAIYYCARGYYGPYYFDYWGQGTALTVSS
VL: DIVMTQSHKFMSTSVGDRVSFTCKASQNVGTAVAWYQQKPGQSPKLLIYWASSRHTGVPDRFTGSGSGTDFTLTITNVQSEDLADYFCQEYSSYPLTFGVGTKLELK
notes: also called mAb 12H8
- Kd: < 0.1 nM
